{"source": "paper PMC5511352", "about": "“Structural insights into the mycobacteria transcription initiation complex from analysis of X-ray crystal structures”", "binders": {"B1": {"name": "us-fork promoter fragment (mixed)", "DNA 1": "GCTTGACAAAAGTGTTAAATTGTGCTATACT", "DNA 2": "AGCACAATTTAACACTTTTGTCAAGC"}}, "biological_target": "T1, RNAP alpha subunit C-terminal domain (alphaCTD, symmetry-related) (Mycobacterium smegmatis (mc2155), UniProt A0QSL8 251-350)", "T1 sequence": "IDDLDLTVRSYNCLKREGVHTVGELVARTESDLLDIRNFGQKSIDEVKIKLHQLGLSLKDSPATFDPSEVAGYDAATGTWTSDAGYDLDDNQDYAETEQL", "assay": "X-ray crystallography (2.76 A); alphaCTD of symmetry-related complex; A/T-rich region -29 to -24; Crystallization: 0.1 M Bis-Tris pH 6.0, 0.2 M Li2SO4 (printed LiSO4), 16% PEG 3350, 2.5% ethylene glycol, 22 C; protein in 20 mM Tris-HCl pH 8, 100 mM K-glutamate, 10 mM MgCl2, 1 mM DTT", "details": "protein: native; upstream fork (ds/ss junction)"}
{"binder": "B1", "values": [{"measurement": "binding result", "value": "binds"}]}
